Assay results reported in US11976099B2, “Compositions and methods for treatment of bone associated diseases” (THE NATIONAL INSTITUTE FOR BIOTECHNOLOGY IN THE NEGEV LTD., priority 2016, dated 2024).

Experiments:
mature osteoclasts = assay: Actin ring formation in mature osteoclasts; format: cell-based, mouse; settings: inhibitors 5 μM added to mature osteoclasts for 24 h; F-actin staining
Description: FIG. 23 are example pictures showing Actin ring formation in mature osteoclasts incubated with M-CSFRGD variants. Murine BMMs were allowed to differentiate into osteoclasts in the presence of M-CSF and RANKL for 72 h. Then, the cells were incubated for additional 24 h without (positive control) or with inhibitors (5 μM) followed by fixation and staining for F-actin and nuclei. Cells were able to form a solid actin ring (white arrowheads), scattered actin ring (white arrows) or amorphous actin distribution (barbed arrowheads). Pictures are representatives of 35 images acquired from five different wells per sample.
For a mature osteoclast to resorb bone properly, it must form unique structure termed “sealing zone”; this structure consists of an actin ring made from a dense actin mesh connected by adhesion complexes called podosomes. The formation of the actin ring involves several stages: at the beginning, podosomes are formed throughout the cell in a scattered manner, then groups of podosomes form small actin structures named belts and upon osteoclast maturation, the belts are moving to the cell periphery, cluster, and form the actin ring. Podosomes contain high levels of αvβ3 integrin which is essential for the formation of a proper actin ring with condensed podosome network. […]

αvβ5 integrin = αvβ5 integrin (Homo sapiens, UniProt P06756+P18084, DEL720-799); assay: SPR integrin specificity, immobilized αvβ5; format: binding; settings: variants at 1 μM
Description: Determination of binding of the soluble purified proteins (M-CSFM and M-CSFRGD variants) to c-FMS and αvβ3 integrin was performed on a ProteOn XPR36 (Bio-Rad, USA). […] Unbound esters were deactivated with 1 M ethanolamine HCl at pH 8.5, and the temperature was set at 25° C. Then, the chip was rotated, and the human c-FMS soluble proteins (Sino Biological, China) were allowed to flow over the chip at 6 different concentrations (0, 12.5, 25, 50, 100 and 200 nM) at a flow rate of 50 μl/min for 490 s, followed by dissociation for 600 s in PBS+0.005% Tween (PBST). For determining αvβ3 integrin binding, the chip was regenerated using 50 mM NaOH at a flow rate of 100 μl/min and analyzed again for c-FMS binding to make sure that the chip had been regenerated. After making sure the chip is regenerated, and different concentrations of […] proteins (0, 12.5, 25, 50, 100 and 200 nM) were allowed to flow over the chip. The interactions obtained were normalized to the initial protein binding RUs to the chip surface. Then, for each concentration, the KD was obtained from the equilibrium binding phase of the sensorgram. To determine the αvβ3 integrin specificity for each M-CSFRGD variant, a new chip was loaded with different RGD binding integrins, as follows: 8.5 μg of α3β1, 8.5 μg of α4β7, 6 μg of α5β1, 8.5 μg of αvβ5, and 8.5 μg of αvβ3 integrin and 3 μg of BSA as a negative control. […]

αvβ5 integrin, sequence (P06756 31-992 limits assumed, stated change not applied): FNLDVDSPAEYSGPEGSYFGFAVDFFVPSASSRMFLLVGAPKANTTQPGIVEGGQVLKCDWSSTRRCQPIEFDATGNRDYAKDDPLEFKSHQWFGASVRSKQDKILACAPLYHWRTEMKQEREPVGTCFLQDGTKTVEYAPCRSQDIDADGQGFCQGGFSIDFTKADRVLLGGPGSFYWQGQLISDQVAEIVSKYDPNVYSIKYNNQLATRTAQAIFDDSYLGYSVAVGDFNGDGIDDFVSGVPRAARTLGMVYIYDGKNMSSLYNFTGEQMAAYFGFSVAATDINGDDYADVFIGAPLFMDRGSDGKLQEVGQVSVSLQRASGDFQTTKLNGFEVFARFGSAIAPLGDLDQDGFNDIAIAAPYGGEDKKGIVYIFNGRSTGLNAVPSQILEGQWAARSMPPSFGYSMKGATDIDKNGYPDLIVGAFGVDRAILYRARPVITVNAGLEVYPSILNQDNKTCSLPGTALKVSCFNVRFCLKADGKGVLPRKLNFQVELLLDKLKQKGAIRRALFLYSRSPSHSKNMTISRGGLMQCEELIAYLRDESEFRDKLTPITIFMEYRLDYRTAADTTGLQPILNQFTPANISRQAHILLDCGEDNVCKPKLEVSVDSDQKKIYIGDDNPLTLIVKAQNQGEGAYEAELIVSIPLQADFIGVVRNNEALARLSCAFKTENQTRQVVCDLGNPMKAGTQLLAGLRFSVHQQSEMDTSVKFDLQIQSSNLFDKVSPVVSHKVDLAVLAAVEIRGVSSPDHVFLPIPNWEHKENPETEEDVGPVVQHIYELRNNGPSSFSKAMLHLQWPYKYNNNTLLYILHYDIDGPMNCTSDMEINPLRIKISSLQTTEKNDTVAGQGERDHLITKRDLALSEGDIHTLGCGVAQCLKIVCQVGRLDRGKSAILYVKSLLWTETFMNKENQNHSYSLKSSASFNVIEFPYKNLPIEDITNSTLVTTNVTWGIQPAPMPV
αvβ5 integrin, sequence (P18084 24-719 limits assumed, stated change not applied): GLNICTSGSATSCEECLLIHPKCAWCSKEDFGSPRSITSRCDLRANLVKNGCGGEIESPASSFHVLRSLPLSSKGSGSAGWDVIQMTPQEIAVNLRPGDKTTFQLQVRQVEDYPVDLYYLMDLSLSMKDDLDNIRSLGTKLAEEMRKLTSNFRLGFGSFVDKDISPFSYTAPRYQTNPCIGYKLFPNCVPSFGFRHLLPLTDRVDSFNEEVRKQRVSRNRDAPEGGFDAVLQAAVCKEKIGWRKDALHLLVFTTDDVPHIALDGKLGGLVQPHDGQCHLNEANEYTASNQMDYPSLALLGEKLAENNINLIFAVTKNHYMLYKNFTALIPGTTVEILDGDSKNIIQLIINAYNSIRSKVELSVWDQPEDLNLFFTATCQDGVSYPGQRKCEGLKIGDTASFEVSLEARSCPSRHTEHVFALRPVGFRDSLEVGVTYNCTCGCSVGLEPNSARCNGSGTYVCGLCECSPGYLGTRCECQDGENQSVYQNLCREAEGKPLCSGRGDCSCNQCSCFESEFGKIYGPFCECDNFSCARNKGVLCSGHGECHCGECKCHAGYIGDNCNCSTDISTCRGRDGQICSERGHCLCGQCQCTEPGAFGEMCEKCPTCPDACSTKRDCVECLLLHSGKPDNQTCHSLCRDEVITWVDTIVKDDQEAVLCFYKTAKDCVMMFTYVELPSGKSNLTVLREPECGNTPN

B1: 5.6: bispecific M-CSFRGD variant from sort five; M-CSFM loop replaced by XXXRGDXXX motif; binds c-FMS and αvβ3 integrin (protein)
chain: EEVSEYCSHMIGSGHLQSLQRLIDTYPRGDMCSITFEFVDQEQLKDPVCYLKKAFLLVQDIMEDTMRFRDNTPNAIAIVQLQELSLRLKSCFTKDYEEHDKACVRTFYETPLQLLEKVKNVFNETKNLLDKDWNIFSKNCNNSFAECSSQGHERQSEGS
modifications: left off: small tags and cut ends
Question: Which actin ring formation (mature osteoclasts) does the source give for B1 here?
Answer: showed the same phenotype as cRGD and M-CSFαvβ3

Question: What about the “rank order of αvβ5 integrin binding” value (αvβ5 integrin) of the same molecule?
Answer: 4.24 is the best αvβ5 integrin followed by 4.22 and 5.6
